Source: IntAct's records for PubMed 32296183

B1: Ceroid-lipofuscinosis neuronal protein 6 (Homo sapiens), Q9NWW5 (parent)
chain: MEATRRRQHLGATGGPGAQLGASFLQARHGSVSADEAARTAPFHLDLWFYFTLQNWVLDFGRPIAMLVFPLEWFPLNKPSVGDYFHMAYNVITPFLLLKLIERSPRTLPRSITYVSIIIFIMGASIHLVGDSVNHRLLFSGYQHHLSVRENPIIKNLKPETLIDSFELLYYYDEYLGHCMWYIPFFLILFMYFSGCFTASKAESLIPGPALLLVAPSGLYYWYLVTEGQIFILFIFTFFAMLALVLHQKRKRLFLDSNGLFLFSSFALTLLLVALWVAWLWNDPVLRKKYPGVIYVPEPWAFYTLHVSSRH
partner: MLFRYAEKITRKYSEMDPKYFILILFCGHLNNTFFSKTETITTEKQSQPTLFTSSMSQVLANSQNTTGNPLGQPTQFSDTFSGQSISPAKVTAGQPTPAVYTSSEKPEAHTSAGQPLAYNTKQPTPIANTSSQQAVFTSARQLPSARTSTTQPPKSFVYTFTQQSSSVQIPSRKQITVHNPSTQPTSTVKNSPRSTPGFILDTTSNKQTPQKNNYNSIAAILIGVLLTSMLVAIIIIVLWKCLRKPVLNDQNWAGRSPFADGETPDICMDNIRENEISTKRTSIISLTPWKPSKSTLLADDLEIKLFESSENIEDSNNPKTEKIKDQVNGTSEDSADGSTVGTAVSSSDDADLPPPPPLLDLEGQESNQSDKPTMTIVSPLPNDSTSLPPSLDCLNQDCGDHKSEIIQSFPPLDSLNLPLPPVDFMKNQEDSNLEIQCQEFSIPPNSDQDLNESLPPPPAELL
B2: Golgi SNAP receptor complex member 2 (Homo sapiens), O14653 (parent)
chain: MDPLFQQTHKQVHEIQSCMGRLETADKQSVHIVENEIQASIDQIFSRLERLEILSSKEPPNKRQNARLRVDQLKYDVQHLQTALRNFQHRRHAREQQERQREELLSRTFTTNDSDTTIPMDESLQFNSSLQKVHNGMDDLILDGHNILDGLRTQRLTLKGTQKKILDIANMLGLSNTVMRLIEKRAFQDKYFMIGGMLLTCVVMFLVVQYLT
partner: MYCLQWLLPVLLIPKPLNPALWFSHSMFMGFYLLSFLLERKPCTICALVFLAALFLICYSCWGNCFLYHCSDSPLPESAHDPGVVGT
B3: Transmembrane protein 43 (Homo sapiens), Q9BTV4 (parent)
chain: MAANYSSTSTRREHVKVKTSSQPGFLERLSETSGGMFVGLMAFLLSFYLIFTNEGRALKTATSLAEGLSLVVSPDSIHSVAPENEGRLVHIIGALRTSKLLSDPNYGVHLPAVKLRRHVEMYQWVETEESREYTEDGQVKKETRYSYNTEWRSEIINSKNFDREIGHKNPSAMAVESFMATAPFVQIGRFFLSSGLIDKVDNFKSLSLSKLEDPHVDIIRRGDFFYHSENPKYPEVGDLRVSFSYAGLSGDDPDLGPAHVVTVIARQRGDQLVPFSTKSGDTLLLLHHGDFSAEEVFHRELRSNSMKTWGLRAAGWMAMFMGLNLMTRILYTLVDWFPVFRDLVNIGLKAFAFCVATSLTLLTVAAGWLFYRPLWALLIAGLALVPILVARTRVPAKKLE
partner: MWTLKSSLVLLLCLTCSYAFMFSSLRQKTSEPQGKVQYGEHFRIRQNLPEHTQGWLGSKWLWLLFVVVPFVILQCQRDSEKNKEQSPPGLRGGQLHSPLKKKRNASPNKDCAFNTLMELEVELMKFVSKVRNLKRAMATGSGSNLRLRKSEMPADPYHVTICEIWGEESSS
B4: Golgi SNAP receptor complex member 2 (Homo sapiens), O14653 (parent)
chain: B2 chain
partner: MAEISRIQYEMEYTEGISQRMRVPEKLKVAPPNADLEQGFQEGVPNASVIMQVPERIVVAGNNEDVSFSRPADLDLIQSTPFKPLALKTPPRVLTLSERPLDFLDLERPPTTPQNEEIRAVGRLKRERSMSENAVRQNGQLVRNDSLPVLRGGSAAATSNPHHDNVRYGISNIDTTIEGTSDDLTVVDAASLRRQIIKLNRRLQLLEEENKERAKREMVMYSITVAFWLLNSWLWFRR
B5: Very-long-chain enoyl-CoA reductase (Homo sapiens), Q9NZ01 (parent)
chain: MKHYEVEILDAKTREKLCFLDKVEPHATIAEIKNLFTKTHPQWYPARQSLRLDPKGKSLKDEDVLQKLPVGTTATLYFRDLGAQISWVTVFLTEYAGPLFIYLLFYFRVPFIYGHKYDFTSSRHTVVHLACICHSFHYIKRLLETLFVHRFSHGTMPLRNIFKNCTYYWGFAAWMAYYINHPLYTPPTYGAQQVKLALAIFVICQLGNFSIHMALRDLRPAGSKTRKIPYPTKNPFTWLFLLVSCPNYTYEVGSWIGFAIMTQCLPVALFSLVGFTQMTIWAKGKHRSYLKEFRDYPPLRMPIIPFLL
partner: B3 partner
B6: Golgi SNAP receptor complex member 2 (Homo sapiens), O14653 (parent)
chain: B2 chain
partner: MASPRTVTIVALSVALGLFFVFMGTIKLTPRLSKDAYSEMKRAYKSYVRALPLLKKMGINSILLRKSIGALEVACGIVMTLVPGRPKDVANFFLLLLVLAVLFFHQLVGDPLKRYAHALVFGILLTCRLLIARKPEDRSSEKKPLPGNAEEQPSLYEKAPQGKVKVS
B7: Transmembrane protein 43 (Homo sapiens), Q9BTV4 (parent)
chain: B3 chain
partner: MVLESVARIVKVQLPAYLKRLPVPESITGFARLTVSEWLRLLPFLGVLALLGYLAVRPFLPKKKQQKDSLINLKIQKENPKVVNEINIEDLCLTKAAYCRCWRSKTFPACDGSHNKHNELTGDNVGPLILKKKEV
B8: Ceroid-lipofuscinosis neuronal protein 6 (Homo sapiens), Q9NWW5 (parent)
chain: B1 chain
partner: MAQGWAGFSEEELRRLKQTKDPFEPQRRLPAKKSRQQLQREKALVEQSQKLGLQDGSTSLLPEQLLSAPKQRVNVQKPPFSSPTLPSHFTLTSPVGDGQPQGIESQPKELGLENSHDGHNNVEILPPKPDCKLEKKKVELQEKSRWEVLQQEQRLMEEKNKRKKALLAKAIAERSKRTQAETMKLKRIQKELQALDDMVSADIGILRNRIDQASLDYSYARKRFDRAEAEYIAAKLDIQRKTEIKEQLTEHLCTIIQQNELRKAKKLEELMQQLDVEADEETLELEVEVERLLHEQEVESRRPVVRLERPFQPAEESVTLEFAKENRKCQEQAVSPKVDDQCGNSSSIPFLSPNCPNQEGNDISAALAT
B9: Catenin alpha-3 (Homo sapiens), Q9UI47-2 (parent)
chain: MSAETPITLNIDPQDLQVQTFTVEKLLEPLIIQVTTLVNCPQNPSSRKKGRSKRASVLLASVEEATWNLLDKGEKIAQEATVLKDELTASLEEVRKESEALKVSAERFTDDPCFLPKREAVVQAARALLAAVTRLLILADMIDVMCLLQHVSAFQRTFESLKNVANKSDLQKTYQKLGKELENLDYLAFKRQQDLKSPNQRDEIAGARASLKENSPLLHSICSACLEHSDVASLKASKDTVCEEIQNALNVISNASQGIQNMTTPPEPQAATLGSALDELENLIVLNPLTVTEEEIRPSLEKRLEAIISGAALLADSSCTRDLHRERIIAECNAIRQALQDLLSEYMNNAGKKERSNTLNIALDNMCKKTRDLRRQLRKAIIDHVSDSFLDTTVPLLVLIEAAKNGREKEIKEYAAIFHEHTSRLVEVANLACSMSTNEDGIKIVKIAANHLETLCPQIINAALALAARPKSQAVKNTMEMYKRTWENHIHVLTEAVDDITSIDDFLAVSGMFLFF
partner: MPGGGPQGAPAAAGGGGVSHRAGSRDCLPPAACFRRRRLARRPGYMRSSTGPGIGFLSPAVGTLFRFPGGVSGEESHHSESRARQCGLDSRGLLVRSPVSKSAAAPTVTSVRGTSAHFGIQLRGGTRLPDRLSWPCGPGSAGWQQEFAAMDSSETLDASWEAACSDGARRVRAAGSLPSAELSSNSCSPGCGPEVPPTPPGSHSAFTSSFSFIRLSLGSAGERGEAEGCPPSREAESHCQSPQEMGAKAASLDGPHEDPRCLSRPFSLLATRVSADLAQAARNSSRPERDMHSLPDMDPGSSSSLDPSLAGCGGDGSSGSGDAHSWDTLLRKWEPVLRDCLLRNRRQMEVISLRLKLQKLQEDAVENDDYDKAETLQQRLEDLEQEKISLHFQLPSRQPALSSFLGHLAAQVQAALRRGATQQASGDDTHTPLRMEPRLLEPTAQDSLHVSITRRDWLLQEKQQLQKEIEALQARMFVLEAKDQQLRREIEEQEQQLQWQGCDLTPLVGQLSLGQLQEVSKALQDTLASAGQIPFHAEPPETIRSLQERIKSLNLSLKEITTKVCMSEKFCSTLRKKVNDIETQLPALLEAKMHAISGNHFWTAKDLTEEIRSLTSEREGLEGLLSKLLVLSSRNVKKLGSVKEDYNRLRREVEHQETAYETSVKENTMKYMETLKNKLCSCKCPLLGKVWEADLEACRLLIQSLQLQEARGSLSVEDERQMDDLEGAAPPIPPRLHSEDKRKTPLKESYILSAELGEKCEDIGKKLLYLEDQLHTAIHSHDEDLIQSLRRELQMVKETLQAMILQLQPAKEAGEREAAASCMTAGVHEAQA

Variants of: B1
Conditions: with EVI2B

Q: R6T was tested. Which “effect of a mutation on the interaction” value did it give?
A: Its value is “with no effect”.

Q: With G123D as the variant, how does the “effect of a mutation on the interaction” value read?
A: The value was “with no effect”.

Q: With L47F as the variant, how does the “effect of a mutation on the interaction” value read?
A: Its value is “with no effect”.

Variants of: B2
Conditions: with blcap_human BLCAP

Q: For G144W, which “effect of a mutation on the interaction” value is on record?
A: The value was “with no effect”.

Variants of: B3
Conditions: with FAM209A

Q: How did the “effect of a mutation on the interaction” value turn out when Y371H was run?
A: The value was “with no effect”.

Q: Which “effect of a mutation on the interaction” value does the source give for E85K here?
A: The value was “disrupting interaction strength”.

Q: With R28W as the variant, how does the “effect of a mutation on the interaction” value read?
A: Its value is “with no effect”.

Q: With I91V as the variant, how does the “effect of a mutation on the interaction” value read?
A: The value was “with no effect”.

Q: How did the “effect of a mutation on the interaction” value turn out when E142K was run?
A: The value was “disrupting interaction strength”.

Variants of: B4
Conditions: with MFF

Q: How did the “effect of a mutation on the interaction” value turn out when G144W was run?
A: The value was “disrupting interaction strength”.

Variants of: B5
Conditions: with FAM209A

Q: P182L was tested. Which “effect of a mutation on the interaction” value did it give?
A: The value was “disrupting interaction strength”.

Variants of: B6
Conditions: with nacho_human TMEM35A

Q: With G144W as the variant, how does the “effect of a mutation on the interaction” value read?
A: Its value is “with no effect”.

Variants of: B7
Conditions: with cisd2_human CISD2, Q8N5K1

Q: With E85K as the variant, how does the “effect of a mutation on the interaction” value read?
A: Its value is “disrupting interaction strength”.

Q: With R28W as the variant, how does the “effect of a mutation on the interaction” value read?
A: The value was “with no effect”.

Q: For Y371H, which “effect of a mutation on the interaction” value is on record?
A: The value was “with no effect”.

Q: I91V was tested. Which “effect of a mutation on the interaction” value did it give?
A: The value was “with no effect”.

Q: For E142K, which “effect of a mutation on the interaction” value is on record?
A: Its value is “disrupting interaction strength”.

Variants of: B8
Conditions: with gorab_human GORAB

Q: For R6T, which “effect of a mutation on the interaction” value is on record?
A: The value was “with no effect”.

Q: G123D was tested. Which “effect of a mutation on the interaction” value did it give?
A: Its value is “with no effect”.

Q: Which “effect of a mutation on the interaction” value does the source give for L47F here?
A: Its value is “with no effect”.

Variants of: B9
Conditions: with DISC1, Q9NRI5-2

Q: V94D was tested. Which “effect of a mutation on the interaction” value did it give?
A: The value was “disrupting interaction strength”.
